One sequence from the supplement of paper PMC11246515 can be followed below.

The data set can be described thus: total protein half-life in vivo (active degradation + dilution); higher = more stable protein. The note with it: E. coli NCM3722 delta-clpP delta-lon delta-hslV; growth: N-lim chemostat; doubling time 6 h.

Take “MELLCPAGNLPALKAAIENGADAVYIGLKDDTNARHFAGLNFTEKKLQEAVSFVHQHRRKLHIAINTFAHPDGYARWQRAVDMAAQLGADALILADLAMLEYAAERYPHIERHVSVQASATNEEAINFYHRHFDVARVVLPRVLSIHQVKQLARVTPVPLEVFAFGSLCIMSEGRCYLSSYLTGESPNTIGACSPARFVRWQQTPQGLESRLNEVLIDRYQDGENAGYPTLCKGRYLVDGERYHALEEPTSLNTLELLPELMAANIASVKIEGRQRSPAYVSQVAKVWRQAIDRCKADPQNFVPQSAWMETLGSMSEGTQTTLGAYHRKWQ”: the “total protein half-life in vivo” value was determined as 4.53 h.
